Molecular target: the molecule itself
Assay: SDS-PAGE under nonreducing and reducing conditions with Western blot

B1: murine TSP2 secreted by dermal fibroblasts (conditioned medium) (natural protein)
chain: not shown
**Q.** For B1, which “stoichiometry N” value is on record?
**A.** 3
